According to patent US20080089892A1:

What was measured:
[1] = molecular target: biotin-labeled soluble FcRn (Fc neonatal receptor); assay: ELISA, biotin-FcRn captured on Neutravidin plate, single-point IgG, pH 6.0
[2] = molecular target: biotin-labeled soluble FcRn (Fc neonatal receptor); assay: ELISA, biotin-FcRn captured on Neutravidin plate, single-point IgG, pH 7.0
[3] = molecular target: Human FcγRIIIa(158F) soluble extracellular domain with engineered 6-histidine tag (human) (UniProt P08637); assay: KinExA, 7.5 nM IgG equilibrated with titrated soluble FcγRIIIa(158F), free IgG captured on receptor beads
Sequence of UniProt P08637 (P08637 other isoform, or with tags, fused parts or gaps): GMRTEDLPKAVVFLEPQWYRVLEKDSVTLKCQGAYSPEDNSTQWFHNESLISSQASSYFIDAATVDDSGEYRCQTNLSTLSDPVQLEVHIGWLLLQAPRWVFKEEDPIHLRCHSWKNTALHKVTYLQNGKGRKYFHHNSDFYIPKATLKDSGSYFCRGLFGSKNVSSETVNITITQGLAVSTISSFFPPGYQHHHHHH

[4] = molecular target: human Fc gamma RI receptor (CD64), extracellular portion with C-terminal 6-his tag; assay: ELISA: plate-coated human FcγRI (CD64) extracellular portion with 6-his tag; IgG titrated; bound IgG detected with anti-human kappa alkaline phosphatase conjugate, A560
Sequence of human Fc gamma RI receptor (CD64), extracellular portion with C-terminal 6-his tag (chain, as listed by the source limits assumed): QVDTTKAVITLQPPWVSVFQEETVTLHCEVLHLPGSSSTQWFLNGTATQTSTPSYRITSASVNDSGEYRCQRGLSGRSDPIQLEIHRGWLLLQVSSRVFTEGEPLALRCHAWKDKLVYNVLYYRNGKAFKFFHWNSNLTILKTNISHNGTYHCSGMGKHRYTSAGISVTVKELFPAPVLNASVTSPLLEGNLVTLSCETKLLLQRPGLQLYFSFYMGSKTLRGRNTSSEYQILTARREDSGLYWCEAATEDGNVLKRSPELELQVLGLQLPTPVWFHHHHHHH

Substance	FcRn 6.0 (binding relative to parental) (% of parental (parental = 100)) [1]	FcRn 7.0 (binding relative to parental) (% of parental (parental = 100)) [2]	Kd [3]	EC50 (read off the curve) [4]
anti-CD20 IgG Fc variant A330K (antibody)	104	99		
anti-CD20 IgG Fc variant A330R (antibody)	77	101		
anti-CD20 IgG Fc variant A339T (antibody)	115	109		
anti-CD20 IgG Fc variant A378D (antibody)	122	93		
anti-CD20 IgG Fc variant D280A (antibody)	91	84		
anti-CD20 IgG Fc variant D280K (antibody)	103	93		
anti-CD20 IgG Fc variant H268D (antibody)	87	84		
anti-CD20 IgG Fc variant H268E (antibody)	90	81		
anti-CD20 IgG Fc variant I332D (antibody)	91	102		
anti-CD20 IgG Fc variant I332E (AME-133: variable region 33 with the I332E Fc variant sequence) (antibody)	99	97	52 nM	2 µg/mL
anti-CD20 IgG Fc variant I332K (antibody)	109	97		
anti-CD20 IgG Fc variant I332R (antibody)	97	92		
anti-CD20 IgG Fc variant L251F (antibody)	102	100		
anti-CD20 IgG Fc variant P247H (antibody)	79	73		
anti-CD20 IgG Fc variant P247I (antibody)	89	74		
anti-CD20 IgG Fc variant P247L (antibody)	92	78		
anti-CD20 IgG Fc variant S440Y (antibody)	106	102		
anti-CD20 IgG Fc variant T256M (antibody)	72	82		
anti-CD20 IgG Fc variant T256P (antibody)	132	121		
anti-CD20 IgG combinatorial Fc variant (L256P, I332E) (antibody)			21 nM	1 µg/mL
wild type (parental Fc) anti-CD20 IgG (antibody)	100	100	387 nM	
